Experimental data published in the supplement of paper PMC11908140.

B1: library; numbered along this chain (parent)
chain: MRKPRAAVGSGHRKQAASQEGRQKHAKNNSQAKPSACDGLARQPEEVVLQASVSSYHLFRDVAEVTAFRGSLLSWYDQEKRDLPWRRRAEDEMDLDRRAYAVWVSEVMLQQTQVATVINYYTGWMQKWPTLQDLASASLEEVNQLWAGLGYYSRGRRLQEGARKVVEELGGHMPRTAETLQQLLPGVGRYTAGAIASIAFGQATGVVDGNVARVLCRVRAIGADPSSTLVSQQLWGLAQQLVDPARPGDFNQAAMELGATVCTPQRPLCSQCPVESLCRARQRVEQEQLLASGSLSGSPDVEECAPNTGQCHLCLPPSEPWDQTLGVVNFPRKASRKPPREESSATCVLEQPGALGAQILLVQRPNSGLLAGLWEFPSVTWEPSEQLQRKALLQELQRWAGPLPATHLRHLGEVVHTFSHIKLTYQVYGLALEGQTPVTTVPPGARWLTQEEFHTAAVSTAMKKVFRVYQGQQPGTCMGSKRSQVSSPCSRKKPRMGQQVLDNFFRSHISTDAHSLNSAAQ

Variants of: B1
Test: 8OG:A repair function score (normalized; synonymous = 0, nonsense = -1) (normalized log-likelihood score); higher = more repair activity (WT-like)
Settings: with 8OG:A DNA repair reporter (GFP) in HEK-293 MUTYH KO cells
Protocol: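 Saturation mutagenesis (NNN codon scan) of the MUTYH cDNA (521-aa nuclear isoform NM_001048174.1 / NP_001041639), stably expressed under doxycycline induction in HEK-293 MUTYH knockout cells. Cells were co-transfected with an 8OG:A-bearing GFP repair reporter plus mCherry and sorted 72 h later into GFP+ and GFP− bins, three replicates per tile. The Rosace log2 enrichment (GFP+ vs GFP−) was converted per tile to a normalized function score with synonymous variants centered at 0 and nonsense variants (codons 1-471) at -1; low-abundance variants were removed.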

Variant	8OG:A repair function score
G155Q	-0.682
G155I	-0.489
R189F	-0.222
R364I	-0.878
I195G	-0.964
L149W	-1.46
E90T	-0.0178
E45V	-0.122
E45M	0.00456
L83M	-0.533
P129F	-0.742
P129W	-0.109
D91L	0.00629
A513M	-0.0173
T511E	-0.0321
L289Y	-0.00792
L289K	-0.0314
S71K	-0.0254
S71F	0.00684
P317D	-0.029
P247Y	-1.04
L516K	0.00908
L516C	0.00795
E160V	-0.00913

Variant	8OG:A repair function score
P352E	-0.0129
P352W	-0.38
P352R	-0.124
Q470H	-0.029
R2S	0.049
A212S	-0.131
A212Y	-0.62
G309W	-0.149
V284A	0.00964
V211M	-0.251
V211A	-0.477
R446I	-0.193
A254G	-0.374
N517Q	0.00486
K464G	-0.315
S510F	-0.00526
A67I	-0.0242
V427L	-0.345
P338N	-0.066
P338Y	-0.0269
P338S	-0.0346
R175S	-0.0258
R175C	-0.0695
K492H	-0.0225

Variant	8OG:A repair function score
P404M	0.184
P404W	-0.26
I221A	-0.993
I221E	-0.989
Y56I	-0.000994
T191Y	-1.07
T191F	-1.01
V65C	-0.00739
V230Q	-0.787
E385G	-0.126
S276K	0.0174
S276G	-0.00134
V328R	0.0191
V328C	0.0567
A203R	0.00374
W321Q	-0.205
W321L	-0.0977
P488I	0.0151
Y152S	-1.19
Y152I	-0.496
V117A	0.0474
V47L	-0.135
I359N	-0.425
I359R	-0.51

Variant	8OG:A repair function score
G70E	-0.0876
S226E	0.00732
G372Q	-0.291
Y100L	-1.29
Y100G	-1.64
L403Q	0.0753
V301W	-0.211
A391I	0.114
G356H	-0.148
G356N	-0.277
I421Q	-0.51
T440I	-0.117
E141W	-0.348
Q498T	0.0263
Q498C	-0.0114
A354H	-0.107
Q388T	-0.108
N366G	-0.066
N366L	-0.0714
V500G	0.00844
T324R	0.0185
T324N	-0.188
Q159G	-0.279
P267Y	-0.838

Variant	8OG:A repair function score
P320D	-0.134
L411V	0.0699
L411H	0.0947
L392M	-0.171
L392D	-0.872
S270T	-0.0207
C216Q	-0.579
S54E	0.00656
S335E	-0.0481
V218L	-0.178
V218D	-0.983
V218H	-0.41
V468W	-0.204
V468M	-0.0306
G434C	0.163
V274W	-0.16
E302S	-0.307
Q386G	0.0232
A431S	0.129
A431V	-0.0559
A431F	-0.237
T122R	-0.0157
F453T	-0.694
A115E	0.0471

Variant	8OG:A repair function score
S343K	0.133
P443L	0.058
H172N	-0.0786
L49A	0.0219
R97K	-0.0457
D224P	-0.861
D224G	-0.936
D77Y	-0.0402
S231W	0.173
S231K	0.154
L290V	-0.0591
L290S	-0.022
A253V	-1
F504E	0.0256
Q473D	-0.0165
S483L	0.00323
A41Q	0.168
S378F	-0.0771
H407Q	0.0383
G248K	-0.801
G248T	-0.939
N329F	-0.345
N329H	-0.276
M496N	0.00145

Variant	8OG:A repair function score
C314T	-0.575
Q265G	-0.0557
Q232P	-0.285
R283C	-0.167
R283S	-0.203
R482Y	0.0178
L73T	-0.136
L73Q	-0.236
S384Y	-0.227
S384T	-0.0483
S384M	-0.315
S384G	0.138
G497C	-0.127
C489P	-0.00598
Q144C	-0.0295
Q144R	0.0872
R495I	-0.0255
R246P	-0.964
L295M	-0.0314
G201A	-0.14
L448P	-0.895
L448H	-0.0456
P442C	-0.141
Q111V	-0.38

Variant	8OG:A repair function score
C304R	-0.464
T424A	-0.121
E46F	0.0911
E46L	-0.211
E46V	0.0528
W103G	-0.73
L432Y	-0.499
L432C	0.0294
L432I	-0.208
A36Q	-0.0644
A280D	-0.649
A280N	-0.632
A280S	-0.172
K80F	-0.364
H312T	-0.112
W399S	-0.232
W399H	-0.291
G479S	0.00355
R467A	0.0232
R69T	-0.172
G161R	-1.15
D208Y	-1.01
D243E	-0.293
D94A	-0.329

Variant	8OG:A repair function score
D94T	-0.178
T228I	-0.152
V438W	-0.131
V438Q	0.187
P185I	-0.275
H57I	-0.613
H57R	-0.473
L313T	-0.317
L313C	-0.146
L313D	-0.363
S459M	-0.693
Y120A	-0.24
Y120N	-0.333
Q450L	-0.12
W85E	-1.28
V465A	-0.0879
V465E	-1.42
S52H	-0.0255
S52R	0.00314
R389E	-0.116
R389V	0.273
R389P	-0.583
G444Y	-0.204
G444N	-0.198

Variant	8OG:A repair function score
T179W	-0.0647
Q271N	0.0195
A220D	-0.821
A220G	-0.13
Q182D	-0.0172
Q182E	-0.0278
R409S	0.0978
P331V	-0.568
L268V	-0.0404
T455A	-0.141
T455E	-0.119
T455R	-0.0505
M462C	-0.0756
M462N	-0.31
T417G	-0.208
T417Y	0.325
E382C	-0.16
E382H	0.042
Q50H	-0.0435
G429E	-0.296
G429R	-0.355
L58G	0.00575
L58Y	-0.0187
H410I	-0.161

Variant	8OG:A repair function score
R154F	-1.05
Q282G	-0.0596
Q282E	-0.0248
Q282M	-0.0222
V261R	-0.0976
V261G	-0.599
Q358K	0.0561
R60Y	-0.014
A137Q	-0.0812
Q202F	-0.471
G236A	0.149
A192W	-1.16
F59S	-0.561
Y151R	-0.389
Y151W	-0.534
Y151N	-1.33
R266D	-0.269
R266H	0.00581
L145D	0.000565
Q435R	0.0382
S138H	0.0365
L139P	0.0573
L215D	-0.968
K463I	-0.089

Variant	8OG:A repair function score
A99Y	-0.837
C262D	-1.2
E452P	-0.856
R42H	0.0289
W128A	-0.875
E303I	-0.101
E303T	-0.0474
V142F	-0.926
V142G	-0.5
C347R	-1.15
K164Y	-0.0367
K164M	0.168
L349W	-0.668
L349A	-0.352
Q126G	-0.0912
E106T	-1.01
E106S	-1.21
E106C	-1.19
Q394P	-0.467
L95F	-0.0596
L95R	-0.104
R281H	0.00153
R281G	-0.264
R281T	-0.16

Variant	8OG:A repair function score
V327Q	-0.4
G368M	-0.799
S296Q	-0.00136
S296W	0.0254
S197T	-0.695
S197Q	-1.14
C477Q	0.0117
Q521K	-0.0417
T66P	-0.115
E256T	-0.514
E256L	-0.906
P474A	-0.0123
P306M	-0.0214
Q181I	-0.0381
M478K	0.00017
W75P	-3.8
G293T	-0.0505
T476N	-0.0111
N210P	-0.658
N210K	-1.04
G401T	-0.428
L131I	-0.158
L131Y	-0.228
L131Q	-0.814

Variant	8OG:A repair function score
L229I	-0.0293
L229G	-0.0206
R163Q	-0.143
T116Q	-0.21
T116D	-1.03
L373N	-0.777
L109D	-1.16
G150V	-1.22
V348A	-0.589
P273G	-0.625
E433V	-0.164
V458R	-0.663
S298G	0.0202
M108S	-1.28
D300A	-0.149
A223N	-0.465
V379R	-0.476
V379N	-0.658
W235Q	-0.314
W235G	-0.61
D249M	-0.419
R340Q	-0.171
